From patent US5847077, “Fungal multisubunit protein complex critical for expression of fungal proteins” (University of Massachusetts Medical Center, dated 1998)

B1: yeast TAF-145 (yTAF145), the 145 kD polypeptide of the yTAF complex (other)
chain: MVKQQGSGKTNLANEDEAYEAIFGGEFGSLEIGSYIGGDEGANSKDYTEHLPDAVDFEDEDELADDDDDLPEESDANLHPAMMTMGAYDDVNENGAVLGIDSNSLNMQLPEINGDLSQQFILEDDGGTPATSNALFMGMDANEIHLATETGVLDGSGANEIGHSQLSIGGVNGNDMSINGGFIMEPDMSDGKHKKATKLDLINHEKYLLKKYFPDFEKGKILKWNKLIYRRSVPYHWHSEISRVKKPFMPLNLKFKVQQDDKRLFNSRTISYVAPIYQGKNNLLQSNSSASRRGLIHVSIDELFPIKEQQKKRKIIHDEKTISEDLLIATDDWDQEKIINQGTSSTATLADSSMTPNLKFSGGYKLKSLIEDVAEDWQWDEDMIIDAKLKESKHAELNMNDEKLLLMIEKTNNLAQQKQQLDSSNLILPLNETILQQKFNLSNDDKYQILKKTHQTKVRSTISNLNIQHSQPAINLQSPFYKVAVPRYQLRHFHRENFGSHIRPGTKIVFSKLKARKRKRDKGKDVKESFSTSQDLTIGDTAPVYLMEYSEQTPVALSKRGMANKLINYYRKANEQDTLRPKLPVGETHVLGVQDKSPFWNFGFVEPGHIVPTLYNNMIRAPVFKHDISGTDFLLTKSSGFGISNRFYLRNINHLFTVGQTFPVEEIPGPNSRKVTSMKATRLKMIIYRILNHNHSKAISIDPIAKHFPDQDYGQNRQKVKEFMKYQRDGPEKGLWRLKDDEKLLDNEAVKSLITPEQISQVESMSQGLQFQEDNEAYNFDSKLKSLEENLLPWNITKNFINSTQMRAMIQIHGVGDPTGCGEGFSFLKTSMKGGFVKSGSPSSNNNSSNKKGTNTHSYNVAQQQKAYDEEIAKTWYTHTKSLSISNPFEEMTNPDEINQTNKHVKTDRDDKKILKIVRKKRDENGIIQRQTIFIRDPRVIQGYIKIKEQDKEDVNKLLEEDTSKINNLEELEKQKKLLQLELANLEKSQQRRAARQNSKRNGGATRTENSVDNGSDLAGVTDGKAARNKGKNTTRRCATCGQIGHIRTNKSCPMYSSKDNPASPK
B2: yeast TAF-90 (yTAF90), the 90 kD polypeptide of the yTAF complex (other)
chain: MSQKQSTNQNQNGTHQPQPVKNQRTNNAAGANSGQQPQQQSQGQSQQQGRSNGPFSASDLNRIVLEYLNKKGYHRTEAMLRAESGRTLTPQNKQSPANTKTGKFPEQSSIPPNPGKTAKPISNPTNLSSKRDAEGGIVSSGRLEGLNAPENYIRAYSMLKNWVDSSLEIYKPELSYIMYPIFIYLFLNLVAKNPVYARRFFDRFSPDFKDFHGSEINRLFSVNSIDHIKENEVASAFQSHKYRITMSKTTLNLLLYFLNENESIGGSLIISVINQHLDPNIVESVTAREKLADGIKVLSDSENGNGKQNLEMNSVPVKLGPFPKDEEFVKEIETELKIKDDQEKQLNQQTAGDNYSGANNRTLLQEYKAMNNEKFKDNTGDDDKDKIKDKIAKDEEKKESELKVDGEKKDSNLSSPARDILPLPPKTALDLKLEIQKVKESRDAIKLDNLQLALPSVCMYTFQNTNKDMSCLDFSDDCRIAAAGFQDSYIKIWSLDGSSLNNPNIALNNNDKDEDPTCKTLVGHSGTVYSTSFSPDNKYLLSGSEDKTVRLWSMDTHTALVSYKGHNHPVWDVSFSPLGHYFATASHDQTARLWSCDHIYPLRIFAGHLNDVDCVSFHPNGCYVFTGSSDKTCRMWDVSTGDSVRLFLGHTAPVISIAVCPDGRWLSTGSEDGIINVWDIGTGKRLKQMRGHGKNAIYSLSYSKEGNVLISGGADHTVRVWDLKKATTEPSAEPDEPFIGYLGDVTASINQDIKEYGRRRTVIPTSDLVASFYTKKTPVFKVKFSRSNLALAGGAFRP

Experiments:
[1] = target: T1, S. cerevisiae TATA-box Binding Protein (yTBP) (S. cerevisiae, UniProt P13393); assay: Far Western blot of the hydroxylapatite fraction probed with 35S-labelled yTBP
T1 sequence: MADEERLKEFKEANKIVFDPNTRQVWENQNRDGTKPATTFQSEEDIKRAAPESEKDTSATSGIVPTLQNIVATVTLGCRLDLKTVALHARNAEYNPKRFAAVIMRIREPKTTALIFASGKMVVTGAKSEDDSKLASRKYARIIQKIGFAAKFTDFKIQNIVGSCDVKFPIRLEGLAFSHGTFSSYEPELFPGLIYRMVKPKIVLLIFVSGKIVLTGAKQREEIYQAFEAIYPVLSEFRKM
Description: (§1) The hydroxylapatite fraction was separated by SDS-PAGE and transferred to Immobilon-P membranes, and blocked in buffer T (0.2M KOAc) containing 0.01% (v/v) NP-40 and 4% BSA for 3 hr at room temperature followed by 2 hr at […]. ^35S-labeled yTBP and hTBP and its mutant derivatives (Ha, I. et al. Genes & Dev. 7, 1021–1032 (1993)) were synthesized in rabbit reticulocyte lysate and wheat germ extract, respectively, and were diluted in incubation buffer (buffer T (0.2) plus 0.01% (v/v) NP-40 and 0.5% BSA). […] The membrane was incubated with probe at […] for 14–18 min, twice in incubation buffer without BSA for 15 min, and rinsed in buffer T (0.2) lacking glycerol for 20 sec. The membrane was air dried, and exposed directly to film for 8–24 hr.
(§2) To identify this subunit, the yTAF complex was examined for TBP binding using an immobilized protein blotting ("Far Western") assay. The hydroxylapatite fraction was fractionated by SDS-PAGE, the polypeptides transferred to nitrocellulose, and the membrane probed with ^35S-labeled yTBP.

[2] = target: human TATA-box Binding Protein (hTBP) (human, UniProt P20226); assay: Far Western blot of the hydroxylapatite fraction probed with 35S-labelled human TBP
Description: as §1, §2

Row | Binder | binding result [1] | binding result [2]
1 | B1 | binds | binds
2 | B2 | no binding | 
